# According to patent US11912794B2, “Modulation of structured polypeptide specificity” (BicycleRD Limited, priority 2011, dated 2024):
# Assays:
# [1] = biological target: biotinylated human plasma Kallikrein (Homo sapiens, UniProt P03952); assay: Phage binding assay of individual clones, randomisation of peptide domains; details: WPAR domain fixed, positions 1, 6, 7, 8, 9 & 10 randomised; top 50
# From the text: Library construction: Small phage libraries were generated according to the methods of Heinis et al as described in ‘Cloning of phage libraries’ above. The sficx3ba primer was modified such that the bicycle-encoding portion was based on a parent 5×5 bicycle (5×5: two 5-residue loops) DNA sequence with only 4-6 codons randomized to NNS. The randomized codons were those encoding the peptide domain/motif of interest.
# Assay of binding of individual clones: Library transformant colonies, or selection output colonies, were picked and grown as individual cultures in 2TY broth containing selective antibiotic. The picked colonies were DNA-sequenced using a QIAgen PyroMark Q96 DNA sequencer to reveal the amino-acid substitution present in each clone, and were assayed for human plasma Kallikrein binding as follows. The phage-containing supernatant was harvested from the culture and phage were cyclised with tris bromomethyl benzene(TBMB) based on the methods of Heinis et al (Nature Chemical Biology vol. 5 pp 502-507 (2009)). The purified phage from this process were assayed for binding to biotinylated human plasma Kallikrein using a homogeneous plate-based binding assay; assay read-out measured on a BMG Labtech Pherastar FS plate reader. The quantitative binding data from duplicate assay samples was averaged (mean) and expressed as signal:background. Assay data shown is representative of at least 2 independent experiments. The assay data was correlated with the peptide sequences.
# (§1) The WPAR (SEQ ID NO: 18) motif identified from Example 1 was analysed in the context of the 06-34-03 peptide, in order to identify alternatives or improvements to the WPAR (SEQ ID NO: 18) motif. A library was constructed where positions 1, 6, 7, 8, 9 &10 of 06-34-03 were fixed and positions 2, 3, 4 & 5 were randomised (see ‘Randomisation of peptide domains—Library construction’ in Methods above). Selections against human plasma Kallikrein were performed at a variety of stringencies (see Phage selections' in Methods above). All output sequences were identified and analysed for target binding (see ‘Randomisation of peptide domains—Assay of binding of individual clones’ in Methods above). Table 17 lists each unique sequence, its relative abundance in the selection output (frequency), and a rank number according to target binding strength.
# Selections against human plasma Kallikrein were performed with this library in order to study the non-WPAR (SEQ ID NO: 18) determinants of Kallikrein binding, and to isolate the optimal WPAR (SEQ ID NO: 18)-containing peptide sequence. Over 150 selection output sequences were isolated and screened for binding to human plasma Kallikrein (as described in Methods above). The sequences were ranked in order of Kallikrein binding and the top 50 sequences were aligned in Table 19. […]
# Biotinylated hPK = biological target: T1, Biotinylated hPK (Homo sapiens, UniProt P03952); assay: Phage selections, abundance of sequences in selection outputs; type: binding; details: randomised WPAR motif at positions 2, 3, 4 & 5 within the 06-34-03 sequence
# T1 construct: IHPKA, from human plasma; purchased Innovative Research, Novi, MI, USA IHPKA; host or cells: human plasma
# T1 sequence (P03952 20-638): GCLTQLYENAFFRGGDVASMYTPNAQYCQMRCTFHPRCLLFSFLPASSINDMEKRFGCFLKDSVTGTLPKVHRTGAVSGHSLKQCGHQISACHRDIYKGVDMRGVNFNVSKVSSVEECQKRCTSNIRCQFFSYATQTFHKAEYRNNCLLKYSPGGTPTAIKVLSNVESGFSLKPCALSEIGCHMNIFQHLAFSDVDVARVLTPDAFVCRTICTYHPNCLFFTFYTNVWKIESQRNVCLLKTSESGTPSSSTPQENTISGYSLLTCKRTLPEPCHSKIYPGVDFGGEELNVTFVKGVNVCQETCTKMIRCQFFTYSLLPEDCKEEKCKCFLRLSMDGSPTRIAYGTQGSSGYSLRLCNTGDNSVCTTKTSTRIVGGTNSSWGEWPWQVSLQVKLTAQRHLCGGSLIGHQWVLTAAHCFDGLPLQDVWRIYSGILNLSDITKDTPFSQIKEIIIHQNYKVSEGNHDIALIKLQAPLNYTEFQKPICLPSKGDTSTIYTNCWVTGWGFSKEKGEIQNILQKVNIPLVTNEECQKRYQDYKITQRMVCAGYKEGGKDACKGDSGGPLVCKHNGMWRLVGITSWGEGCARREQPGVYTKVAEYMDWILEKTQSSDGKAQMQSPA
# Experimental: Glycerol stocks of phage libraries were diluted to OD600=0.1 in 500 ml 2YT/chloramphenicol (30 μg/ml) cultures and phage were produced at 30° C. over night (15-16 hrs). Phage were purified and chemically modified as described in Heinis, et al., Nat Chem Biol 2009, 5 (7), 502-7 Biotinylated hPK (3 μg) (IHPKA, from human plasma, Innovative Research, Novi, MI, USA) was incubated with 50 μl pre-washed magnetic streptavidin beads (Dynal, M-280 from Invitrogen, Paisley, UK) for 10 minutes at RT. […] Blocked beads were then mixed with the blocked chemically modified phage and incubated for 30 minutes on a rotating wheel at RT. Beads were washed 8 times with washing buffer containing 0.1% Tween 20 and twice with washing buffer before incubation with 100 μl of 50 mM glycine, pH 2.2 for 5 minutes. Eluted phage were transferred to 50 μl of 1 M Tris-Cl, pH 8 for neutralization, incubated with 30 ml TG1 cells at OD600=0.4 for 90 minutes at 37° C. and the cells were plated on large 2YT/chloramphenicol plates. One or two additional rounds of panning were performed using the same procedures. In the second round of selection, neutravidin-coated magnetic beads were used to prevent the enrichment of streptavidin-specific peptides. The neutravidin beads were prepared by reacting 0.8 mg neutravidin (Pierce, Rockford, IL, USA) with 0.5 ml tosyl-activated magnetic beads (Dynal, M-280 from Invitrogen, Paisley, UK) according to the supplier's instructions.
# as §1
# biotinylated human plasma Kallikrein, sequence (P03952 20-638): as above
Rank (sequences ranked according to Kallikrein binding) [1],Frequency (relative abundance in the total selection outputs) (Biotinylated hPK),Substance
27,,SEQ ID NO: 140 (CHWPARCMHQDLC; Synthetic sequence Kallikrein binder containing a WPAR motif)
48,,SEQ ID NO: 161 (CSWPARCTHSDLC; Synthetic sequence Kallikrein binder containing a WPAR motif)
32,,SEQ ID NO: 145 (CAWPARCMHDDLC; Synthetic sequence Kallikrein binder containing a WPAR motif)
26,,SEQ ID NO: 139 (CTWPARCTHADLC; Synthetic sequence Kallikrein binder containing a WPAR motif)
45,,SEQ ID NO: 158 (CSWPARCTHAEMC; Synthetic sequence Kallikrein binder containing a WPAR motif)
3,,SEQ ID NO: 116 (CHWPARCTHQDLC; Synthetic sequence Kallikrein binder containing a WPAR motif)
35,,SEQ ID NO: 148 (CTWPARCTHTDMC; Synthetic sequence Kallikrein binder containing a WPAR motif)
14,,SEQ ID NO: 127 (CAWPARCTHVDLC; Synthetic sequence Kallikrein binder containing a WPAR motif)
47,,SEQ ID NO: 160 (CTWPARCTHQAFC; Synthetic sequence Kallikrein binder containing a WPAR motif)
20,,SEQ ID NO: 133 (CLWPARCTHADLC; Synthetic sequence Kallikrein binder containing a WPAR motif)
9,,SEQ ID NO: 122 (CLWPARCTHQDLC; Synthetic sequence Kallikrein binder containing a WPAR motif)
6,,SEQ ID NO: 119 (CSWPARCTHDDLC; Synthetic sequence Kallikrein binder containing a WPAR motif)
29,,SEQ ID NO: 142 (CAWPARCTHYDLC; Synthetic sequence Kallikrein binder containing a WPAR motif)
28,,SEQ ID NO: 141 (CPWPARCTHTDLC; Synthetic sequence Kallikrein binder containing a WPAR motif)
17,,SEQ ID NO: 130 (CAWPARCTHADLC; Synthetic sequence Kallikrein binder containing a WPAR motif)
31,,SEQ ID NO: 144 (CSWPARCTHTELC; Synthetic sequence Kallikrein binder containing a WPAR motif)
15,,SEQ ID NO: 128 (CAWPARCTHTDFC; Synthetic sequence Kallikrein binder containing a WPAR motif)

Rank (sequences ranked according to Kallikrein binding) [1],Frequency (relative abundance in the total selection outputs) (Biotinylated hPK),Substance
30,,SEQ ID NO: 143 (CPWPARCTHQNLC; Synthetic sequence Kallikrein binder containing a WPAR motif)
4,,SEQ ID NO: 117 (CPWPARCTHQDLC; Synthetic sequence Kallikrein binder containing a WPAR motif)
37,,SEQ ID NO: 150 (CAWPARCLHADMC; Synthetic sequence Kallikrein binder containing a WPAR motif)
22,,SEQ ID NO: 135 (CQWPARCMHQELC; Synthetic sequence Kallikrein binder containing a WPAR motif)
44,,SEQ ID NO: 157 (CLWPARCLTTELC; Synthetic sequence Kallikrein binder containing a WPAR motif)
16,,SEQ ID NO: 129 (CMWPARCMHQDLC; Synthetic sequence Kallikrein binder containing a WPAR motif)
5,,SEQ ID NO: 118 (CSWPARCTHADLC; Synthetic sequence Kallikrein binder containing a WPAR motif)
25,,SEQ ID NO: 138 (CVWPARCTHQDLC; Synthetic sequence Kallikrein binder containing a WPAR motif)
24,,SEQ ID NO: 137 (CSWPARCTHSHLC; Synthetic sequence Kallikrein binder containing a WPAR motif)
33,,SEQ ID NO: 146 (CSWPARCLHTELC; Synthetic sequence Kallikrein binder containing a WPAR motif)
2,,SEQ ID NO: 208 (CSWPARCTHQDLC; Synthetic sequence 06-34-03)
40,,SEQ ID NO: 153 (CAWPARCTHQTMC; Synthetic sequence Kallikrein binder containing a WPAR motif)
,1,"SEQ ID NO: 114 (CSWQARCTHQDLC; Synthetic sequence Kallikrein binder identified from selections using a randomised WPAR motif at positions 2, 3, 4 & 5 within the 06-34-03 sequence of PCT/EP2012/069898 (SEQ ID NO 58))"
,1,"SEQ ID NO: 94 (CSFPYKCTHQDLC; Synthetic sequence Kallikrein binder identified from selections using a randomised WPAR motif at positions 2, 3, 4 & 5 within the 06-34-03 sequence of PCT/EP2012/069898 (SEQ ID NO 58))"
,1,"SEQ ID NO: 79 (CSWAARCTHQDLC; Synthetic sequence Kallikrein binder identified from selections using a randomised WPAR motif at positions 2, 3, 4 & 5 within the 06-34-03 sequence of PCT/EP2012/069898 (SEQ ID NO 58))"
,3,"SEQ ID NO: 82 (CSWPYRCTHQDLC; Synthetic sequence Kallikrein binder identified from selections using a randomised WPAR motif at positions 2, 3, 4 & 5 within the 06-34-03 sequence of PCT/EP2012/069898 (SEQ ID NO 58))"
,1,"SEQ ID NO: 109 (CSFMYKCTHQDLC; Synthetic sequence Kallikrein binder identified from selections using a randomised WPAR motif at positions 2, 3, 4 & 5 within the 06-34-03 sequence of PCT/EP2012/069898 (SEQ ID NO 58))"
